# Measured values from patent US11046945B2, “Labeled glutaminase proteins, isolated glutaminase protein mutants, methods of use, and kit” (CORNELL UNIVERSITY, priority 2013, dated 2021).
# T1: GAC (Mus musculus, UniProt D3Z7P3)
# T1 construct: plasmid (residues 72-603 for GAC, 72-674 for KGA); His-tag with thrombin cleavage site (N, cleaved yes); made in house; host or cells: pET23a vector
# T1 sequence (D3Z7P3 72-603 isoform D3Z7P3-2): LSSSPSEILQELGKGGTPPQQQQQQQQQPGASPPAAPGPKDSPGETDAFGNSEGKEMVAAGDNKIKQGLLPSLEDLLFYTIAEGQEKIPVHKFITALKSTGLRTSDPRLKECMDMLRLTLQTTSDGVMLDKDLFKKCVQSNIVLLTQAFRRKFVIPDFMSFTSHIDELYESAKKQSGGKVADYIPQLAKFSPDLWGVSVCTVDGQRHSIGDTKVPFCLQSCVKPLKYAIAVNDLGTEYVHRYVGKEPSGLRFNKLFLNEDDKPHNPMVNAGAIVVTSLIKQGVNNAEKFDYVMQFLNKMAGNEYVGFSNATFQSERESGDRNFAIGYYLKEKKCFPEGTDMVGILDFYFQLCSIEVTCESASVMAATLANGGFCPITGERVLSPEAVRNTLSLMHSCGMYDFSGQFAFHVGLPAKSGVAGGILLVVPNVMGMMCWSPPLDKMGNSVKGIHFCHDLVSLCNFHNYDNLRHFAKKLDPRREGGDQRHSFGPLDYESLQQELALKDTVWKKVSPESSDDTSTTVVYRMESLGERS
# B1: QSY® 9-GAC (WT): wild type recombinant mouse GAC labeled with the non-fluorescent acceptor QSY 9 succinimidyl ester (protein)
# chain: LSSSPSEILQELGKGGTPPQQQQQQQQQPGASPPAAPGPKDSPGETDAFGNSEGKEMVAAGDNKIKQGLLPSLEDLLFYTIAEGQEKIPVHKFITALKSTGLRTSDPRLKECMDMLRLTLQTTSDGVMLDKDLFKKCVQSNIVLLTQAFRRKFVIPDFMSFTSHIDELYESAKKQSGGKVADYIPQLAKFSPDLWGVSVCTVDGQRHSIGDTKVPFCLQSCVKPLKYAIAVNDLGTEYVHRYVGKEPSGLRFNKLFLNEDDKPHNPMVNAGAIVVTSLIKQGVNNAEKFDYVMQFLNKMAGNEYVGFSNATFQSERESGDRNFAIGYYLKEKKCFPEGTDMVGILDFYFQLCSIEVTCESASVMAATLANGGFCPITGERVLSPEAVRNTLSLMHSCGMYDFSGQFAFHVGLPAKSGVAGGILLVVPNVMGMMCWSPPLDKMGNSVKGIHFCHDLVSLCNFHNYDNLRHFAKKLDPRREGGDQRHSFGPLDYESLQQELALKDTVWKKVSPESSDDTSTTVVYRMESLGERS
# B2: QSY® 9-GAC (D391K): QSY 9-labeled constitutive GAC dimer mutant D391K (protein)
# chain: LSSSPSEILQELGKGGTPPQQQQQQQQQPGASPPAAPGPKDSPGETDAFGNSEGKEMVAAGDNKIKQGLLPSLEDLLFYTIAEGQEKIPVHKFITALKSTGLRTSDPRLKECMDMLRLTLQTTSDGVMLDKDLFKKCVQSNIVLLTQAFRRKFVIPDFMSFTSHIDELYESAKKQSGGKVADYIPQLAKFSPDLWGVSVCTVDGQRHSIGDTKVPFCLQSCVKPLKYAIAVNDLGTEYVHRYVGKEPSGLRFNKLFLNEDDKPHNPMVNAGAIVVTSLIKQGVNNAEKFDYVMQFLNKMAGNEYVGFSNATFQSERESGKRNFAIGYYLKEKKCFPEGTDMVGILDFYFQLCSIEVTCESASVMAATLANGGFCPITGERVLSPEAVRNTLSLMHSCGMYDFSGQFAFHVGLPAKSGVAGGILLVVPNVMGMMCWSPPLDKMGNSVKGIHFCHDLVSLCNFHNYDNLRHFAKKLDPRREGGDQRHSFGPLDYESLQQELALKDTVWKKVSPESSDDTSTTVVYRMESLGERS
# B3: QSY® 9-GAC (K316E, D391K, R459E): QSY 9-labeled monomer GAC mutant K316E/D391K/R459E (protein)
# chain: LSSSPSEILQELGKGGTPPQQQQQQQQQPGASPPAAPGPKDSPGETDAFGNSEGKEMVAAGDNKIKQGLLPSLEDLLFYTIAEGQEKIPVHKFITALKSTGLRTSDPRLKECMDMLRLTLQTTSDGVMLDKDLFKKCVQSNIVLLTQAFRRKFVIPDFMSFTSHIDELYESAKKQSGGKVADYIPQLAKFSPDLWGVSVCTVDGQRHSIGDTKVPFCLQSCVKPLKYAIAVNDLGTEYVHRYVGEEPSGLRFNKLFLNEDDKPHNPMVNAGAIVVTSLIKQGVNNAEKFDYVMQFLNKMAGNEYVGFSNATFQSERESGKRNFAIGYYLKEKKCFPEGTDMVGILDFYFQLCSIEVTCESASVMAATLANGGFCPITGERVLSPEAVENTLSLMHSCGMYDFSGQFAFHVGLPAKSGVAGGILLVVPNVMGMMCWSPPLDKMGNSVKGIHFCHDLVSLCNFHNYDNLRHFAKKLDPRREGGDQRHSFGPLDYESLQQELALKDTVWKKVSPESSDDTSTTVVYRMESLGERS
# Target: T1, GAC
# Assay: FRET assay of GAC tetramer formation (488-GAC donor, QSY 9-GAC acceptor)
# Format: binding
# Conditions: 200 nM QSY 9-labeled protein added to 20 nM 488-WT-GAC
# Description: A mouse kidney type glutaminase isoform 1 (KGA, NP_001074550.1, which is hereby incorporated by reference in its entirety (SEQ ID NO:7)) and isoform 2 (GAC, NP_001106854.1, which is hereby incorporated by reference in its entirety (SEQ ID NO:3)) plasmid (residues 72-603 for GAC, 72-674 for KGA) was cloned into a pET23a vector containing an N-terminal histidine (His)-tag and thrombin cleavage site. The expressed protein was initially purified using Co^2+ affinity beads (Clontech), after which the His-tag was cleaved with human thrombin (Haemetologic Technologies) overnight at 4° C. and subsequently purified by anion exchange (GE healthcare) and gel filtration chromatography. Purified GAC or KGA was stored in a high salt containing buffer (20 mM Tris-HCl pH 8.5, 500 mM NaCl, 1 mM NaN3) and stored at −80° C. following snap freezing in liquid N2 for long term use. For labeling recombinant GAC or KGA with small molecule probes, 1.5 mg of enzyme was exchanged to 50 mM HEPES pH 7.2, 100 mM NaCl using a PD10 desalting column (GE healthcare) and incubated with 50 μM (5-fold excess of enzyme) of either ALEXA FLUOR® 488 succinimidyl ester or QSY® 9 succinimidyl ester (Molecular Probes) for 1 hr at 4° C. After 1 hr, the labeling reaction was quenched with 150 mM Tris-HCl pH 8.5 and unreacted probe was separated from labeled-enzyme using a PD10 desalting column eluting labeled-GAC back into the high salt containing buffer.
# Fluorescence experiments were performed using a Varian Carry Eclipse Fluorometer in the counting mode. Excitation and emission wavelengths were 490 and 520 nm, respectively. Experiments were all prepared as one-mL samples and stirred continuously at 20° C. in 50 mM Tris-Acetate pH 8.5, 0.1 mM ethylenediaminetetraacetic acid (EDTA). For WT GAC titrations in the absence of inorganic phosphate, 10 nM 488-GAC was equilibrated followed by injection of 25 μL of the appropriate concentration of QSY® 9-GAC and was allowed to equilibrate for 10 minutes at which point 75 μL of the appropriate concentration of unlabeled WT GAC was added to give a concentration that was ten-times that of labeled-GAC (i.e., 10-fold excess). For FRET experiments prepared for inorganic phosphate titrations, a similar protocol was followed whereby 10 nM of 488-GAC was equilibrated with 400 nM QSY® 9-GAC followed by injection of 100 μL of the appropriate concentration of K2HPO4 prepared in 50 mM Tris-Acetate (pH=8.5) 0.1 mM EDTA buffer. To test whether purified mutants can form oligomers with WT GAC, 200 nM QSY® 9-D391K-GAC or 200 nM QSY® 9-K316E-D391K-R459E was added to an equilibrated sample of 20 nM 488-WT GAC. Likewise, when assaying the effects of BPTES and 968 on oligomer formation, BPTES or 968 (10 μM or 25 μM, respectively) was added following equilibration of a sample of 200 nM of QSY® 9-WT GAC and 20 nM 488-WT GAC. Both BPTES and 968 were prepared in DMSO, and appropriate dilutions were made so that less than 2% (v/v) DMSO was added to an experimental sample.
row,Molecule,EFRET max / energy transfer on addition to 488-GAC (WT)
1,B1,approximately 0.3
2,B2,only a minor extent of FRET
3,B3,no observable energy transfer
